Results: PMC2195798 (The Journal of Experimental Medicine, 2000)
Where two headings read alike, the source gives them in different places.

B1: MC148 CC chemokine from molluscum contagiosum virus (MCV), processed secreted protein (ligand, molluscum contagiosum virus subtype 1, UniProt Q98314 1-104, looked up)
chain: LARRKCCLNPTNRPIPNPLLQDLSRVDYQAIGHDCGREAFRVTLQDGRQGCVSVGNKSLLDWLRGHKDLCPQIWSGCESL
B2: I-309 (ligand, human, UniProt P22362 24-96, looked up)
chain: KSMQVPFSRCCFSFAEQEIPLRAILCYRNTSSICSNEGLIFKLKRGKEACALDTVGWVQRHRKMLRHCPSKRK
B3: viral macrophage inflammatory protein (vMIP)-II encoded by human herpesvirus 8 (HHV8) (ligand, UniProt Q98157 21-94, looked up)
chain: GDTLGASWHRPDKCCLGYQKRPLPQVLLSSWYPTSQLCSKPGVIFLTKRGRQVCADKSKDWVKKLMQQLPVTAR

Columns and labels:
[1] = biological target: T1, CC chemokine receptor 8 (CCR8) (human, UniProt P51685 1-355); test: radioligand binding
[2] = biological target: T1, CC chemokine receptor 8 (CCR8); test: radioligand binding; remark: listed apart in the source

T1 sequence (P51685 whole entry): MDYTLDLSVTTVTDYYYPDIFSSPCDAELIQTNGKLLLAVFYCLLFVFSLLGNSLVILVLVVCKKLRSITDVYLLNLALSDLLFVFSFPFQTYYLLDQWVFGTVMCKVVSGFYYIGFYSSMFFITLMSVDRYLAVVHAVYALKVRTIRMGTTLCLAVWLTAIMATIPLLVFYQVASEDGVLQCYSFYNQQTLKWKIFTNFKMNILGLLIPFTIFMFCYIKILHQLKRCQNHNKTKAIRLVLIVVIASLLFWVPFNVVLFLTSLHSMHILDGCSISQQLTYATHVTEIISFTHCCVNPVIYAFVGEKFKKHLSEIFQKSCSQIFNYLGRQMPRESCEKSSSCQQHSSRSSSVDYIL

Binder	IC50 [1] [nM]	IC50 [2] [nM]
B1	0.27	0.47
B2	–	0.52
B3	–	27.8
